Measurements as given in patent publication US20250327097A1, “ORGANISMS PRODUCING LESS CROTONIC ACID” (Global Bioenergies, priority 2021, published 2025).
Numbering of substitutions follows the chain as printed. In names and notes the source's numbering stands.

B1: I283T-P284D-N287P-S322T-N388M-K423C-C430N-L432F-L434W-S436N-A463G-Y469D (protein)
chain: MFLKSLREQINLLKRQGDLRIINRPVDSYLEAAAIIRRSTETKAPVPLMTNIKGYPGCSIVGGLAALSSNPEYPLSRVAMSLGLSTTASAQSIVQYLIDGLKKTPYLPVEIDSNSAPCKQNILRGEDASLAHFPIPQVHQHDGNRYVNTWGVFIVESPDGQWCNWSIQRVQYLNDRQMIALVFPSQHISDIWEEWVKIGKPMPYALVQGCEPIVPYIAGLPLLERNVNEAEYIGALYGKGIEVVKCETHDLRVPASSEVVIEGYFAITREGVEGPFGEFAGYTDNEPSLQPILSITAISWQDDPIWPVVAEGKPVDEYHTCTGIGDAAAIQNVLLTANLPVSFVWVPLYSACHLMIVSINRHWRQTHPDLTSEQLTKKVGDVIHQTRMSIKLPKIVVLDDDVDPADTESLLWALATRIHPERCRYFYESNIFPWLNCYSEEERHNRKGKRVIIDALLPENHGGISSFDDAYPDDIKQRVLMHWETDFSHD
B2: I283T-P284D-N285I-N287P-S322T-N388M-C430N-L432F-L434W-S436N-A463G-Y469D (protein)
chain: B1 chain with N285I, C423K
B3: I283T-P284D-N285A-N287P-S322T-N388M-C430N-L432F-L434W-S436N-A463G-Y469D (protein)
chain: B1 chain with N285A, C423K
B4: I283T-P284D-N285L-N287P-S322T-N388M-C430N-L432F-L434W-S436N-A463G-Y469D (protein)
chain: B1 chain with N285L, C423K
B5: K391I-L432W-L434M (protein)
chain: MFLKSLREQINLLKRQGDLRIINRPVDSYLEAAAIIRRSTETKAPVPLMTNIKGYPGCSIVGGLAALSSNPEYPLSRVAMSLGLSTTASAQSIVQYLIDGLKKTPYLPVEIDSNSAPCKQNILRGEDASLAHFPIPQVHQHDGNRYVNTWGVFIVESPDGQWCNWSIQRVQYLNDRQMIALVFPSQHISDIWEEWVKIGKPMPYALVQGCEPIVPYIAGLPLLERNVNEAEYIGALYGKGIEVVKCETHDLRVPASSEVVIEGYFAITREGVEGPFGEFAGYIPNENSLQPILSITAISWQDDPIWPVVAEGKPVDEYHTCSGIGDAAAIQNVLLTANLPVSFVWVPLYSACHLMIVSINRHWRQTHPDLTSEQLTKKVGDVIHQTRNSIILPKIVVLDDDVDPADTESLLWALATRIHPERKRYFYESCIWPMLSCYSEEERHNRKGKRVIIDALLPENHGAISSFDYAYPDDIKQRVLMHWETDFSHD
B6: N388M-L432F-L434W-S436A (protein)
chain: B5 chain with N388M, I391K, W432F, M434W, S436A
B7: K394R-L432F-L434W (protein)
chain: B5 chain with I391K, K394R, W432F, M434W
B8: N388M-C430S-L432F-L434W-S436N (protein)
chain: B5 chain with N388M, I391K, C430S, W432F, M434W, S436N
B9: N388M-K394R-C430N-L432F-L434W-S436N (protein)
chain: B5 chain with N388M, I391K, K394R, C430N, W432F, M434W, S436N
B10: N388M-L432F-L434W (protein)
chain: B5 chain with N388M, I391K, W432F, M434W
B11: N388M-K394C-C430P-L432F-L434W-S436N (protein)
chain: B5 chain with N388M, I391K, K394C, C430P, W432F, M434W, S436N
B12: C430S-L432F-L434W (protein)
chain: B5 chain with I391K, C430S, W432F, M434W
B13: N388M-K394R-L432F-L434W-S436N (protein)
chain: B5 chain with N388M, I391K, K394R, W432F, M434W, S436N
B14: R387A-L432F-L434W-S436A (protein)
chain: B5 chain with R387A, I391K, W432F, M434W, S436A
B15: K394R-C430P-L432F-L434W-S436N (protein)
chain: B5 chain with I391K, K394R, C430P, W432F, M434W, S436N
B16: N388M-K394R-C430K-L432F-L434W-S436N (protein)
chain: B5 chain with N388M, I391K, K394R, C430K, W432F, M434W, S436N
B17: C430S-L432F-L434W-S436N (protein)
chain: B5 chain with I391K, C430S, W432F, M434W, S436N
B18: N388M-C430P-L432F-L434W-S436N (protein)
chain: B5 chain with N388M, I391K, C430P, W432F, M434W, S436N
B19: K394R-C430S-L432F-L434W-S436N (protein)
chain: B5 chain with I391K, K394R, C430S, W432F, M434W, S436N
B20: N388M-L432F-L434W-S436N (protein)
chain: B5 chain with N388M, I391K, W432F, M434W, S436N
B21: N388M-K394R-C430P-L432F-L434W-S436A (protein)
chain: B5 chain with N388M, I391K, K394R, C430P, W432F, M434W, S436A
B22: K394R-L432F-L434W-S436A (protein)
chain: B5 chain with I391K, K394R, W432F, M434W, S436A
B23: L432F-L434W-S436N (protein)
chain: B5 chain with I391K, W432F, M434W, S436N
B24: N388M-K394R-C430S-L432F-L434W-S436N (protein)
chain: B5 chain with N388M, I391K, K394R, C430S, W432F, M434W, S436N
B25: N388M-C430P-L432F-L434W-S436A (protein)
chain: B5 chain with N388M, I391K, C430P, W432F, M434W, S436A
B26: K394R-C430S-L432F-L434W-S436A (protein)
chain: B5 chain with I391K, K394R, C430S, W432F, M434W, S436A
B27: C430P-L432F-L434W-S436N (protein)
chain: B5 chain with I391K, C430P, W432F, M434W, S436N
B28: K394R-L432F-L434W-S436N (protein)
chain: B5 chain with I391K, K394R, W432F, M434W, S436N
B29: C430S-L432F-L434W-S436A (protein)
chain: B5 chain with I391K, C430S, W432F, M434W, S436A
B30: N388M-K394A-C430P-L432F-L434W-S436N (protein)
chain: B5 chain with N388M, I391K, K394A, C430P, W432F, M434W, S436N
B31: H141Y-N388M-K394R-C430P-L432F-L434W-S436N (protein)
chain: B5 chain with H141Y, N388M, I391K, K394R, C430P, W432F, M434W, S436N
B32: C430P-L432F-L434W-S436A (protein)
chain: B5 chain with I391K, C430P, W432F, M434W, S436A
B33: N388M-C430S-L432F-L434W-S436A (protein)
chain: B5 chain with N388M, I391K, C430S, W432F, M434W, S436A
B34: N388M-C430A-L432F-L434W-S436N (protein)
chain: B5 chain with N388M, I391K, C430A, W432F, M434W, S436N
B35: N388M-K394R-C430S-L432F-L434W-S436A (protein)
chain: B5 chain with N388M, I391K, K394R, C430S, W432F, M434W, S436A
B36: N388M-K394R-I395V-C430P-L432F-L434W-S436N (protein)
chain: B5 chain with N388M, I391K, K394R, I395V, C430P, W432F, M434W, S436N
B37: N388M-K394H-C430P-L432F-L434W-S436N (protein)
chain: B5 chain with N388M, I391K, K394H, C430P, W432F, M434W, S436N
B38: L432F-L434W-S436A (protein)
chain: B5 chain with I391K, W432F, M434W, S436A
B39: K394R-C430P-L432F-L434W-S436A (protein)
chain: B5 chain with I391K, K394R, C430P, W432F, M434W, S436A
B40: N388M-K394R-C430P-L432F-L434W-S436N (protein)
chain: B5 chain with N388M, I391K, K394R, C430P, W432F, M434W, S436N
B41: N388M-K394R-L432F-L434W-S436A (protein)
chain: B5 chain with N388M, I391K, K394R, W432F, M434W, S436A

Tested on: 3-methylcrotonic acid
Type: biochemical, Yersinia frederiksenii
Parameters: key: “+” representing a low increase in activity; “++++” representing a high increase in activity

Q: B1 was tested. Which “Activity relative to WT” value did it give?
A: Its value is “++++”.

Q: With B2 as the molecule, how does the “Activity relative to WT” value read?
A: Its value is “++++”.

Q: B3 was tested. Which “Activity relative to WT” value did it give?
A: Its value is “++++”.

Q: How did the “Activity relative to WT” value turn out when B4 was run?
A: Its value is “++++”.

Q: With B5 as the molecule, how does the “Activity relative to WT” value read?
A: The value was “+”.

Q: For B6, which “Activity relative to WT” value is on record?
A: Its value is “+”.

Q: With B7 as the molecule, how does the “Activity relative to WT” value read?
A: The value was “+”.

Q: With B8 as the molecule, how does the “Activity relative to WT” value read?
A: The value was “+”.

Q: With B9 as the molecule, how does the “Activity relative to WT” value read?
A: Its value is “+”.

Q: With B10 as the molecule, how does the “Activity relative to WT” value read?
A: Its value is “+”.

Q: How did the “Activity relative to WT” value turn out when B11 was run?
A: The value was “+”.

Q: Which “Activity relative to WT” value does the source give for B12 here?
A: The value was “+”.

Q: With B13 as the molecule, how does the “Activity relative to WT” value read?
A: Its value is “+”.

Q: Which “Activity relative to WT” value does the source give for B14 here?
A: Its value is “+”.

Q: With B15 as the molecule, how does the “Activity relative to WT” value read?
A: Its value is “+”.

Q: With B16 as the molecule, how does the “Activity relative to WT” value read?
A: Its value is “+”.

Q: For B17, which “Activity relative to WT” value is on record?
A: Its value is “+”.

Q: For B18, which “Activity relative to WT” value is on record?
A: The value was “+”.

Q: B19 was tested. Which “Activity relative to WT” value did it give?
A: Its value is “+”.

Q: With B20 as the molecule, how does the “Activity relative to WT” value read?
A: Its value is “+”.

Q: How did the “Activity relative to WT” value turn out when B21 was run?
A: The value was “+”.

Q: With B22 as the molecule, how does the “Activity relative to WT” value read?
A: The value was “+”.

Q: Which “Activity relative to WT” value does the source give for B23 here?
A: Its value is “+”.

Q: Which “Activity relative to WT” value does the source give for B24 here?
A: The value was “+”.

Q: With B25 as the molecule, how does the “Activity relative to WT” value read?
A: The value was “+”.

Q: B26 was tested. Which “Activity relative to WT” value did it give?
A: Its value is “+”.

Q: With B27 as the molecule, how does the “Activity relative to WT” value read?
A: The value was “+”.

Q: B28 was tested. Which “Activity relative to WT” value did it give?
A: The value was “+”.

Q: For B29, which “Activity relative to WT” value is on record?
A: The value was “+”.

Q: Which “Activity relative to WT” value does the source give for B30 here?
A: Its value is “+”.

Q: With B31 as the molecule, how does the “Activity relative to WT” value read?
A: Its value is “+”.

Q: Which “Activity relative to WT” value does the source give for B32 here?
A: The value was “+”.

Q: For B33, which “Activity relative to WT” value is on record?
A: Its value is “+”.

Q: For B34, which “Activity relative to WT” value is on record?
A: The value was “+”.

Q: How did the “Activity relative to WT” value turn out when B35 was run?
A: Its value is “+”.

Q: Which “Activity relative to WT” value does the source give for B36 here?
A: Its value is “+”.

Q: B37 was tested. Which “Activity relative to WT” value did it give?
A: Its value is “+”.

Q: With B38 as the molecule, how does the “Activity relative to WT” value read?
A: The value was “+”.

Q: How did the “Activity relative to WT” value turn out when B39 was run?
A: The value was “+”.

Q: Which “Activity relative to WT” value does the source give for B40 here?
A: Its value is “+”.

Q: B41 was tested. Which “Activity relative to WT” value did it give?
A: Its value is “+”.
